{"source": "paper PMC10940649", "about": "“Structural insights into human organic cation transporter 1 transport and inhibition” (Cell Discovery, 2024)", "biological_target": "T1, human organic cation transporter 1 (hOCT1) (Homo sapiens, UniProt O15245)", "T1 construct": "human organic cation transporter 1 (SLC22A1), full-length, wild-type construct used for cryo-EM structure determination; A 3C protease cleavage site stands between hOCT1 and GFPuv-His6; The FSEC-TS assay used hOCT1-GFP; also called SLC22A1; hOCT1-GFP; source: Sf9 insect cells (baculovirus), purified (Ni-NTA, protein C column, SEC) in DDM or LMNG micelles", "T1 sequence (O15245 whole entry)": "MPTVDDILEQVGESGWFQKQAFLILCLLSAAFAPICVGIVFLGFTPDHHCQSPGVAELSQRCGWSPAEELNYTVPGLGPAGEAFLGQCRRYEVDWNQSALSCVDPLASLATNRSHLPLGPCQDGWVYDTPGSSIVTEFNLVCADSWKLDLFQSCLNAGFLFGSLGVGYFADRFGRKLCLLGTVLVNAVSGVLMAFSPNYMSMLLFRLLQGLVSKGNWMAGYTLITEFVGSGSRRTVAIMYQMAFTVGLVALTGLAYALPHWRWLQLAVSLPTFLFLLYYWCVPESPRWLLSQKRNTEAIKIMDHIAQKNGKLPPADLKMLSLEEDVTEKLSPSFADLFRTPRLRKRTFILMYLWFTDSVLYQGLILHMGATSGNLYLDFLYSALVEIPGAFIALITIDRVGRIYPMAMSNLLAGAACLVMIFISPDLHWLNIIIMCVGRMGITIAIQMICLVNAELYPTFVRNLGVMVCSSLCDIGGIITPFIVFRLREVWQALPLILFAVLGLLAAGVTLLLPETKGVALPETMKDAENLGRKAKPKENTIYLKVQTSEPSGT", "assay": "SEC; Nb56 with hOCT1; co-migration on size exclusion chromatography", "conditions": "both partners purified", "data": [{"binder": "Nb56 (VHH, Nanobody selected from a synthetic yeast display library with hOCT1 in LMNG as bait; Nb56 was modelled in the deposited hOCT1-Nb5660 structures (hOCT1-apo1, -apo2, -apo3); source: E. coli BL21 (DE3), pET26b, purified (Ni-NTA, SEC)) VHH: QVQLQESGGGLVQAGGSLRLSCAASGTIFYYEIMGWYRQAPGKEREFVATIDQGGITNYADSVKGRFTISRDNAKNTVYLQMNSLKPEDTAVYYCAVPDVFVGRGWDYLIYWGQGTQVTVSS", "values": [{"measurement": "binding result", "value": "binds"}]}]}
